From the DeepSol protein solubility set come the findings set out here.

The nature of the series: soluble on expression in E. coli; label from the status in PepcDB or PDB records.
Turning to “MGSDKIHHHHHHMCRLSLLKSSHLFKEQLLAASYSIQCVSQIAILGAPLWNALMAGANRQDQNGPANPFCRYEYLHALELSGCVGEQTGWRPMHLVVSEAGQIGENNQASAQGGDRQIDPSKVLAVMPLYLKGHSYGEYVFDWAWAQAYERHGLEYYPKLVNAIPFTPVTGSRIGFRVDLSEAQKAGLIGKIGEHLDLLTKACSASSWHSLFLLESERQPLVSKGHLQRLGTQFHWFNRDYQSFDDFLSRLTSRRRKSILKERRAITKAGLKFHFIDGAEITEDELTHFVHCYQRTYYKRSGHQGYLNAAFFSAVVKNMADKVRLLMVERPQANKLEAQAGSDARSEVGSAQEIEPIAAALYFVGGDCLYGRYWGALEEIEGLHFETCYYQGIDYAIAQRLKKFDAGAQGEHKVLRGFEPIPTYSIHEILHGDFRRAIADFIEQEARAVKIYMNELEAILPFKREGD”, the “soluble on expression in E. coli” value is reported as “not soluble”.

As for “MGSDKIHHHHHHVSQLTPWQHYQQDLTRDDFSHDAAQEQAVKSLQRVYDELIVAAKPASSVSKLFSAIGIKSTPTPVKGLYLWGGVGRGKTYLMDTFFDALPTDRKLRAHFHRFMHQIHNDLGELKGVQDPLLTIAKKMASQYQIICFDEFFVSDITDAMLLGTLFQALFKEGVALVATSNIIPDELYKNGLQRVRFLPAIALINQHCEILNVDSGIDYRLRTLEQAEIYHYPLDEQADINLLHYFDQLAPESEKLTAPIDVDGRAIRIRQQSQGVLLINFRDLCDGPRSQRDYMEMACLYHTVLVSGLEQMGSQQTGDDIARRFLAMVDEFYERNVKLIISAQVELEHIYTDGQLNFEFRRCRSRLIEMQSREYLALEHLP”, the “soluble on expression in E. coli” value was “not soluble”.

With “MVMMSKQLTAQAPVDPIVLGKMGSSYGIRGWLRVFSSTEDAESIFDYQPWFIQKAGQWQQVQLESWKHHNQDMIIKLKGVDDRDAANLLTNCEIVVDSSQLPQLEEGDYYWKDLMGCQVVTTEGYDLGKVVDMMETGSNDVLVIKANLKDAFGIKERLVPFLDGQVIKKVDLTTRSIEVDWDPGFLEHHHHHH”, the “soluble on expression in E. coli” value is “soluble”.

For “MRITLVTDSTSDLPQDLRGRLGVRVVPLYVNLSGAIYRDWEEITPTEIFQKVREGAAFPTTSQPSPEDFARVYREALEEADHVLSLHISGKLSGTVQSAELAAQEFPGRVTVVDTQAASLGVGMMVLRAKELLEEGQSLEAVLAELERLRRDHFVRFSVATLEFLKRGGRIGGAQAFLGTLLNLKPVLTLKEGRVEAAGRARGEKKAREEILKAFRAWAEGRKRIRAYFLYSGDEDAVAALRQEVLASGLPVEEALVNELGAVIASHTGPGTYGFYAYSL”, the “soluble on expression in E. coli” value is “soluble”.

In the case of “MENRYSVHPEQVKRFTTEELRSHFLMDSLFTENKLTMYYSHEDRVVIGGAAPGQSELKLDAGDFLKTDFFLERREIGIINVGQPGAVRVGDDEYVLQTKDFLYIGMGNQDVSFSSLNGEKAKFYFVSACAHKSYPTQKAALSELTPDRLGDDAASNVRSLYKVIHQDGIKSCQLMMGITMLDQNNNWNTMPAHVHDRRMEAYLYLDLEKDSKVFHFMGQPDETRHLVVGNEQAVLSPAWSIHSGAGTSNYSFVWAMAGENYTFTDMDLIPMDGLK”, the “soluble on expression in E. coli” value is listed as “not soluble”.

In the case of “MDGCMPGISATTLLKQQNIPESFKFYFKRRFAPLVTDGPHLNELVRPRLKIAIVTETWPPEINGVAMSLLQLCKGLQEQGHKILLVRPQQKRECYEFSPHKECLVHAQRIPKYPELQFGWPQYLKVAKAFEDFTPDVVHVVTEGPLGLTALYAARAKQIPVSSGFHSPFQDFSRFFDLAFLLKPIQGYLRWFHNHTQITCVPSQDTEKALRAFGVTCPLSIVGRGVDPKFFSPDFRNEALRERWKAASDTVVMLYVGRLSPEKEIHILIQNYAAMRRVEPRNVKLVIVGSGPDRARLEALDETQEVIFMGSLSGKNLAEAYASADVFVFASQVETFGNVVLEAMASGLPVVAYDYACAHQYIQHGVTGWLSPLGQPATFIQAMRQLSGVKQLRQMGQRARQCVEHDGWQYPVQQMEQALYRVVKEPYMKLEHHHHHH”, the “soluble on expression in E. coli” value is recorded as “not soluble”.

For the sequence “AATSRDALPNTEASGPTHSKEIPALTAVETGATNPLVPSDTVQTRHVVQHRSRSESSIESFFARGACVTIMTVDNPASTTNKDKLFAVWKITYKDTVQLRRKLEFFTYSRFDMELTFVVTANFTETNNGHALNQVYQIMYVPPGAPVPEKWDDYTWQTSSNPSIFYTYGTAPARISVPYVGISNAYSHFYDGFSKVPLKDQSAALGDSLYGAASLNDFGILAVRVVNDHNPTKVTSKIRVYLKPKHIRVWCPRPPRAVAYYGPGVDYKDGTLTPLSTKDLTTY”, the “soluble on expression in E. coli” value is reported as “soluble”.

For “VYDNDIDTGAKNTLNLDEELQLGELSLDTIRSLEKLAPFGMDNKKPVFWLHDITVTQARTMGQNGAHLKFKVKQGKASFDVVAFNKGHLLQEFQQAQGLELAVTLSVNVWNGQTTLQ”, the “soluble on expression in E. coli” value was “not soluble”.

Consider “MGSDKIHHHHHHMPQRLYTYPPLLRGRLLQRYKRFFADIELDSGETITAHCPNTGPMTGVCQMGNLVYVSKSDNPKRKLAYTWELIEVTDNEPTWVGVNTGLPNRVVQALLEQRCLPVLGDYGEVQREVPYGENSRIDFRLTGDRPIYVEVKNTTWTAGRLALFPDTVTTRGQKHLRELTAILLEARAVMLYFINRGDCTAFAPGDSADPTYGQLLRTGIAAGLEVYPCQFQISPEGIDFLGVAPLQL”, for which the “soluble on expression in E. coli” value was “not soluble”.

For “VSTTPAAGVLDTSVFIATESGRQLDEALIPDRVATTVVTLAELRVGVLAAATTDIRAQRLATLESVADMETLPVDDDAARMWARLRIHLAESGRRVRINDLWIAAVAASRALPVITQDDDFAALDGAASVEIIRV”, the “soluble on expression in E. coli” value is listed as “not soluble”.

Consider “MSPVVSEASPERWDDETDVLVIGSGAGGLSAALFAAQAGLRVLICEKLAYVGGTTATSGGGIWVPGTKAGLAAGDTLEAARTYLKALLGDFYQEEVIDTYLATGGKVIDFLNENTEVKFDLSSWPDYRSSLPGGATRGRSLFPQPFDGKKLGRNFSLLHPPLHRLMVLGGLMLGPEEVHDFLRPFSSPRALMRVLRKLLRYGMDRIRYARGTDLRSGNALAARLLYSVDKLGCRILTQADLESLAIDHDRVIGATVVVGGVPKRIRASKAVLLATGGFAHNQEMLRRYGPATPHRFSLCNPACTGAGIQAALDAGASVDRELSSVGFWTPASASREKNGADTPVIYSYLDRGRPGVIAVNEQGERFVNEANSYHDIVTAIFANGGADGKPFYFITDREFVRRHGLGLIRPWPWNRSLRPWIRRGYITVASTLDKLGPKIGIDPGALAAAVQRHNQSARTGQDPDFHKGASAYNRMFGHNMIWPNPNLAPIETPPFVALRIHPATIGTAMGLKTSASGQALNAAGQPISGLYACGNDQASPFRGFYPGGGSTLGPAIVGAYLAVQSLSKQLEHHHHHH”, for which the “soluble on expression in E. coli” value is on record as “not soluble”.

Consider “MGSDKIHHHHHHMKTLKGPAIFLAQFIGDTPPFDKLETMAAWVSSLGYAGVQMPTGGADSFFDLALAAESQTYCDDIAGLLAEYGLEITELSTHLQGQLVAVHPAYDELFDGFAPPELRGKPKERQAWAVEQVKAAAVASRRLGLKAHATFSGSLAWPYLYPWPQRPAGLIEEAFAELGRRWKPILDVFDENGVDAAYEIHPGEDLHDGATFERFLDEVGGHPRANILYDPSHFVLQQLDYLAYIDRYHERIKAFHVKDAEFRPSARSGVYGGYQGWVDRPGRFRSLGDGQVDFKAIFSKLAQYDYDGWAVLEWECALKHPEQGAAEGAPFIRDHIIRVTDKAFDDFASAGSEAGRNRRLLGL”, for which the “soluble on expression in E. coli” value was “not soluble”.

As to “MSLDIRLLIMPLPDFALLPFGAFLDKLRFSADDEDYSQQRYCSWMVAGLSLEPVPSSSGAVLQVEAIADQLDLDLFDYLVVFGGRSAMATAALAPRYQALLRQAAKAGVKLVGVDNGAFLLAACGLLQGHKVVVHWRHEAEFRAAFPQLQLLREQLYCIDGNRITCAGGTAAIDLAVALLSRACGRTRALKGLADMLVDETREGHHHHHH”, the “soluble on expression in E. coli” value was “soluble”.

Take “MGSDKIHHHHHHMLFYLPVTGQNTAVYPDQFGAYFNNMHLVTPSYFPKDVKVNLSLSYKSRTGALNKISTFNVAFTRVFNHTKPTNHLIRIYFYNEKDGPYIHRPRAYINYGYKIALSKQVNIAAGAAFGFAQTAFTAPSSTANGNSISPDASIGLSLQVKNFEAGFSVCQLLNSEVNPVVAPIIYRRYYNTYLSYHADLSPFIKLKSGMLWRALPTYDDDLNIYSMLEYKETISFGGCYRYNKNFSFVVSTNIHIGKESILLSFVYNTPFFTKLPAWTDSVELNGGYNFY”: the “soluble on expression in E. coli” value was “not soluble”.

With “MLFRVRSETDSQPPFACLNDIKLFDTDNIGRGINAAILNGTTGDIIEKATFDVTASDEKLMTWLLKVPHASLLVAASFGDVAEHVSRQSRQLFAAFGAQKIDNWRVGNAYAIIGQRGIRRGEAHETVAKFLEENTQQKLFEGCFDLPIAEIGGEVELKIDGPPVHRADESKLAELGAFEADLLQQNKDVEYGGKWKNCGMDRPCNEADTIPVHFFSGEHKDDHPKMCIGGRMLFDKDLNSAGRGLNLAMLEPKTGKVTAVAHFDTYEDESHGLEEWLDAVPTGYIVAVVSFDEASNQLSDMARRIFYEMGSSMIDRLKFRASWYFVGQKGIGAYTPFEDLNIPQGNNWANPIHTSFCLPKSLHKWAGRRDTSSSMTSSASNDVRNLPKRHFCAKYDRHEEFCGAANLDSPIMPRHLSDEQRSSDAIFNVPILVASGLAPDSLRITLESLLNQEGLNTQMVLVTYDKEYSENADLVSLFHVKSVAIQSNGSYNGRKTSWKSEEIAENPMKIDRKPPGGLGNQKFVFLGHQFF”, the “soluble on expression in E. coli” value was “not soluble”.

As to “MSNKLESYRSEIVSLNHQILDLLSKRGELAQKIGEEKLKQGTRIYDPQREKEMLNDLIDSNKGPFNDNTIKQLFKEIFKASTDLQKSENEKHLYVSRKLKPEDTIVTFDNGGIIGDGNKSFVFGPCSVESFEQVEAVAKNLHAKGEKFIRGGAFKPRTSPYDFQGLGVEGLKILKQIKDKYDLNVVSEIVNPNDFEVADEYLDVFQIGARNMQNFELLKEAGRTKKPILLKRGLSATIEEFVYAAEYIASQGNQNIILCERGIRTYEKATRNTLDISAVPILKQGTHLPVMVDVTHSTGRKDIMLPTAKAALAVGADGVMAEVHPDPSVALSDAGQQMDLDEFQAFYDELKPLADLYNAKKLK”, the “soluble on expression in E. coli” value was “not soluble”.

With “GPGSMDFVPTVAVIRANPVEGVRYAYTSTVSDNRYDSFVEDAVMQYSGNVNEADGSDRASPRFSGRSVVNLQRAILQCGDIRVSDKQDAEPVGVWRCLAGAILAACCFLRSYSTCPSESFDECGAEVCDAFVPAGVAMIIFSGVCDTRPLSFSEECPFSAAVTAATRLRTAVHVFGPAVVSSALGLRLQALANTTGGIWAPQFALSHVGYLMELAVRRNGQREMDSATNSRRQRELLVERYVVPPACLPQDPAQTGVASGENVSYLAWLCSACLATLVRHPHEEVGAIRMCPYCAASK”, the “soluble on expression in E. coli” value is reported as “not soluble”.

Turning to “MQFEKMITEGSNTASAEIDRVSTLEMCRIINDEDKTVPLAVERVLPDIAAAIDVIHAQVSGGGRLIYLGAGTSGRLGILDASECPPTYGVKPGLVVGLIAGGEYAIQHAVEGAEDSREGGVNDLKNINLTAQDVVVGIAASGRTPYVIAGLEYARQLGCRTVGISCNPGSAVSTTAEFAITPIVGAEVVTGSSRMKAGTAQKLVLNMLSTGLMIKSGKVFGNLMVDVVATNEKLHVRQVNIVKNATGCSAEQAEAALIACERNCKTAIVMVLKNLDAAEAKKRLDQHGGFIRQVLDKELEHHHHHH”, the “soluble on expression in E. coli” value is listed as “soluble”.

Regarding “MTNHPIQGLMTTAMENLKQMIDVNTIIGDPVETPDGSVILTVSKVGFGFAAGGSEFMLDGQQNGHQGAQADGNGHPFGGGSGGGVSITPIAFLVVNSSGVKLLHLDESTHLYEKILDVAPQAFEKIQAMLKKNKKDGAAGQKADDFDI”, the “soluble on expression in E. coli” value is given as “not soluble”.
